Three molecules from PMC4432619, “The structure of FMNL2–Cdc42 yields insights into the mechanism of lamellipodia and filopodia formation” (Nature Communications, 2015) can be followed below.

To fix the notation:
B1: FMNL1NCC (1–458, Δ172–198) (domain or fragment, human, UniProt O95466 1-458, looked up)
chain: MGNAAGSAEQPAGPAAPPPKQPAPPKQPMPAAGELEERFNRALNCMNLPPDKVQLLSQYDNEKKWELICDQERFQVKNPPAAYIQKLKSYVDTGGVSRKVAADWMSNLGFKRRVQESTQVLRELETSLRTNHIGWVQEFLNEENRGLDVLLEYLAFAQCSVTYDMESTDNGSRHLTIKLTPAHSRKALRNSRIVSQKDDVHVCIMCLRAIMNYQSGFSLVMNHPACVNEIALSLNNKNPRTKALVLELLAAVCLVRGGHDIILAAFDNFKEVCGEQHRFEKLMEYFRNEDSNIDFMVACMQFINIVVHSVENMNFRVFLQYEFTHLGLDLYLERLRLTESDKLQVQIQAYLDNIFDVGALLEDTETKNAVLEHMEELQEQVALLTERLRDAENESMAKIAELEKQLSQARKELETLRERFSESTAMGPSRR
notes: also called FMNL1NCC(Δ172–198); FMNL1 (1–458, Δ172–198); source: E. coli, purified (GSH Sepharose, TEV cleavage, gel filtration); not shown: GST, N-terminal, cleaved
B2: Full-length, recombinant FMNL1 protein (natural protein, human, UniProt O95466 1-1100, looked up)
chain: MGNAAGSAEQPAGPAAPPPKQPAPPKQPMPAAGELEERFNRALNCMNLPPDKVQLLSQYDNEKKWELICDQERFQVKNPPAAYIQKLKSYVDTGGVSRKVAADWMSNLGFKRRVQESTQVLRELETSLRTNHIGWVQEFLNEENRGLDVLLEYLAFAQCSVTYDMESTDNGASNSEKNKPLEQSVEDLSKGPPSSVPKSRHLTIKLTPAHSRKALRNSRIVSQKDDVHVCIMCLRAIMNYQSGFSLVMNHPACVNEIALSLNNKNPRTKALVLELLAAVCLVRGGHDIILAAFDNFKEVCGEQHRFEKLMEYFRNEDSNIDFMVACMQFINIVVHSVENMNFRVFLQYEFTHLGLDLYLERLRLTESDKLQVQIQAYLDNIFDVGALLEDTETKNAVLEHMEELQEQVALLTERLRDAENESMAKIAELEKQLSQARKELETLRERFSESTAMGPSRRPPEPEKAPPAAPTRPSALELKVEELEEKGLIRILRGPGDAVSIEILPVAVATPSGGDAPTPGVPTGSPSPDLAPAAEPAPGAAPPPPPPLPGLPSPQEAPPSAPPQAPPLPGSPEPPPAPPLPGDLPPPPPPPPPPPGTDGPVPPPPPPPPPPPGGPPDALGRRDSELGPGVKAKKPIQTKFRMPLLNWVALKPSQITGTVFTELNDEKVLQELDMSDFEEQFKTKSQGPSLDLSALKSKAAQKAPSKATLIEANRAKNLAITLRKGNLGAERICQAIEAYDLQALGLDFLELLMRFLPTEYERSLITRFEREQRPMEELSEEDRFMLCFSRIPRLPERMTTLTFLGNFPDTAQLLMPQLNAIIAASMSIKSSDKLRQILEIVLAFGNYMNSSKRGAAYGFRLQSLDALLEMKSTDRKQTLLHYLVKVIAEKYPQLTGFHSDLHFLDKAGSVSLDSVLADVRSLQRGLELTQREFVRQDDCMVLKEFLRANSPTMDKLLADSKTAQEAFESVVEYFGENPKTTSPGLFFSLFSRFIKAYKKAEQEVEQWKKEAAAQEAGADTPGKGEPPAPKSPPKARRPQMDLISELKRRQQKEPLIYESDRDGAIEDIITVIKTVPFTARTGKRTSRLLCEASLGEEMPL
notes: also called full-length FMNL1; source: expressed from insect cells
B3: Cdc42 (1–179) (domain or fragment)
chain: not shown
notes: Loaded with the non-hydrolysable GTP analogue GppNHp and Mg2+ in all rows written here; also called Cdc42·GppNHp; active Cdc42; source: E. coli, GST fusion, purified; nucleotide exchanged for GppNHp

Data set [1] concerns the molecule itself. Put plainly: crystal structure; complexes formed by equimolar mixing of the FMNL fragment with GppNHp-loaded Cdc42 (1–179) in high salt buffer and overnight dialysis at 277 K into 20 mM Tris/HCl pH 8.0, 150 mM NaCl, 5 mM MgCl2, 1 mM DTE; hanging drop vapour diffusion at 293 K.
Data set [2] deals with the molecule itself. Put plainly: SEC; size exclusion chromatography of full-length recombinant FMNL1 from insect cells; data not shown. A general note: SEC sorts molecules by how far they enter the pores of the column.
Data set [3] concerns the target myrFMNL2N (myristoylated FMNL2N, residues 2–379) (human, UniProt Q96PY5 2-379, N-terminal myristoylation (myrFMNL2N)). Put plainly: ITC; Cdc42·GppNHp titrated to myrFMNL2N at liposomes; 25 °C. Particulars: both partners purified. (In ITC the heat of successive injections is recorded.)
Data set [4] concerns the target T1, FMNL2N(Δloop) (residues 1–379, Δaa 144–218) (human, UniProt Q96PY5 1-379, Δaa 144–218).
T1 construct: source: E. coli, purified (GSH Sepharose, TEV cleavage, gel filtration); not shown: GST, N-terminal, cleaved
As to the kind of experiment: ITC; GppNHp-loaded GTPase at 500 μM injected from the syringe into 50 μM FMNL in the cell; 20 mM Tris/HCl pH 8, 150 mM NaCl, 5 mM MgCl2, 1 mM DTE, 298 K; MicroCal iTC200. Conditions: both partners purified.

Data set [5] addresses B1. As to the kind of experiment: crystal structure; complexes formed by equimolar mixing of the FMNL fragment with GppNHp-loaded Cdc42 (1–179) in high salt buffer and overnight dialysis at 277 K into 20 mM Tris/HCl pH 8.0, 150 mM NaCl, 5 mM MgCl2, 1 mM DTE; hanging drop vapour diffusion at 293 K. Particulars: both partners purified.

myrFMNL2N (myristoylated FMNL2N, residues 2–379), sequence (Q96PY5 2-379): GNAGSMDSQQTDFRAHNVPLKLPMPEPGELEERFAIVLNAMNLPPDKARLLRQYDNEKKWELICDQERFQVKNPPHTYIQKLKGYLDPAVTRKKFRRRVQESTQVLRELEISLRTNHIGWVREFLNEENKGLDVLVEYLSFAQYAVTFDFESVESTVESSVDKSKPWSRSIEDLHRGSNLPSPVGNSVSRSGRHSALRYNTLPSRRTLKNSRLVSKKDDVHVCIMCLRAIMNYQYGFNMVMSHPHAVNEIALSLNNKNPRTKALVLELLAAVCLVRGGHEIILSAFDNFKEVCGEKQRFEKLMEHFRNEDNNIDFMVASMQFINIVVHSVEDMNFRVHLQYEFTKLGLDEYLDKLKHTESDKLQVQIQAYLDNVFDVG
T1 sequence (Q96PY5 other isoform, or with tags, fused parts or gaps Δaa 144–218 | Δaa 144–218 | mutant): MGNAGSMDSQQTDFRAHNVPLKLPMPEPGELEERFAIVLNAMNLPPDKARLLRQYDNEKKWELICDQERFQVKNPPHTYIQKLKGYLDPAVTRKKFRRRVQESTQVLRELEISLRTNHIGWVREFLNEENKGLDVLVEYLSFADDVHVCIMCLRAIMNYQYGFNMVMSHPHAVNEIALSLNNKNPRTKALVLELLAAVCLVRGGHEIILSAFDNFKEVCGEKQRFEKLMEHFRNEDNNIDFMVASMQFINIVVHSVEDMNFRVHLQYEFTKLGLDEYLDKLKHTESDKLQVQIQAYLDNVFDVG

With B1, in data set [1], the binding result was “binds”.

Broadly, the stoichiometry N is the number of molecules, sites or subunits per partner or assembly. As to B2, the “stoichiometry N” value in data set [2] came to 2.

For orientation: Kd means the free concentration of one partner at which half of the binding sites on the other are occupied at equilibrium, for simple one-to-one binding. A lower Kd goes with higher affinity. On to B3, for which, in data set [3], binding was characterised by a dissociation constant (Kd) of 1790 ± 760 nM, the dH was -2.77 ± 0.29 kcal/mol and the “stoichiometry N” value turned out to be 0.93. Further, in data set [4], the equilibrium dissociation constant (Kd) worked out at 1340 ± 170 nM, the dH is -2.39 ± 0.04 kcal/mol and the “stoichiometry N” value came to 1. In data set [5], the binding result is given as “binds”.
